Measured values reported in US20090148510A1 (Stanford University, published 2009).

Key:
[1] = biological target: T1, purified β2AR having an amino terminal Flag epitope tag and a carboxyl hexahistidine tag (UniProt P07550 1-413); assay: isothermal titration calorimetry, detergent-solubilized β2AR, 25° C.
T1 construct: also called β2 adrenoreceptor; denatured β2AR (when treated with SDS); not shown: carboxyl hexahistidine tag (six His)
Procedure: ITC measurements were performed at 25° C. using a VP-ITC calorimeter (Microcal, Inc.). […] Titrations were initiated with a 3 μl injection, followed by a series of 8 μl injections (37 β₂AR and 31 for β₂AR buffer blank), with 240 s between injections. After subtracting the blank titration, the measured heat released upon binding was plotted against the Fab:β₂AR molar ratio, and the data were fitted to a single-site binding model to obtain the association constant Ka, enthalpy change ΔH, and stoichiometry n using the Origin software package¹ (Microcal, Inc.)

[2] = biological target: T2, β2AR labeled at C265 with tetramethylrhodamine (UniProt P07550 1-413, tetramethylrhodamine on C265); assay: antibody dose-response on fluorescence of β2AR-TMR (labeled at C265), 4 nM receptor
T2 construct: Detergent-solubilized (0.1% dodecylmaltoside) purified receptor; also called β2AR-TMR

B1: Fab 5 (Fab fragment of antibody 5) (Fab, V domains shown)
VH: EVQLQQSGAELARPGASVKLSCKASGYIFTDYYINWVRQRTGQGFEWIGEIYPGSGNIDYNERFKDKATLTADKSSSTAYMQLSSLTSEDSAVYFCVRGFGYWGQGTTLTVSS
VL: DIKMTQSPSSMYASLGERVTITCKASQDINSYLSWFQQKPGKSPKTLIYRANRLVDGVPSRFIGTGSGQDYSLTISSLDYEDMGIYYCLQYDEFPYTFGGGTKLEIKR
notes: Made by papain cleavage of purified mouse antibody 5 and purified by ion exchange (Mono Q) chromatography; also called Fab5 antibody; Fab 5 fragments
- Kd [1]: 150 nM

B2: antibody 5 (intact mouse monoclonal antibody) (antibody, V domains shown)
VH: EVQLQQSGAELARPGASVKLSCKASGYIFTDYYINWVRQRTGQGFEWIGEIYPGSGNIDYNERFKDKATLTADKSSSTAYMQLSSLTSEDSAVYFCVRGFGYWGQGTTLTVSS
VL: DIKMTQSPSSMYASLGERVTITCKASQDINSYLSWFQQKPGKSPKTLIYRANRLVDGVPSRFIGTGSGQDYSLTISSLDYEDMGIYYCLQYDEFPYTFGGGTKLEIKR
notes: Mouse IgG from hybridoma; also called Mab5; Mab5 IgG
- EC50 [2]: 23 nM
